Experimental data published in the nanobody polyreactivity screen of Harvey et al. (2022).

Test: yeast display, Sf9 membrane polyspecificity reagent, FACS + sequencing; frameworks hold sequencing errors
In short: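 In a synthetic yeast display library (Saccharomyces cerevisiae BJ5465), nanobody expression was induced with galactose for 36–48 hours. FACS gates were set low and high (top ~1%) using anti-HA fluorescence for expression and streptavidin fluorescence for binding of the Sf9 membrane reagent. Each polyreactivity label is drawn from the gate of origin.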

| Sequence | polyreactivity (PSR sort gate) |
| --- | --- |
| QVQLVESGGGLVQAGGSLRISCAASGFTFPSYAMGWYRQAAGKERELVAAINRRGGSTNYADSVKGRFTISRDNAKNTDYLQMNSLKPEDTAVYYCAKQPRLGKYEYYYWGQGTQVTVSS | high polyreactivity |
| PVQLVDSGGGLVQAGGSLRLSCAASGKIFFGYTMGWYRTAPGKERELVAAITYRGGRTYYADSEKGRFTISRDNAKHTVYLQMNSLKPEDTAVYYFAVGGSGYGRYGGGYARDYWGQGTQVTVSS | high polyreactivity |
| QVQLVESGGGLVQAGGSLSLSCAASGSIFRGNAMGWYRQAPGKERELVAANSYSSGTTYYADSVKGRFTISRDNAKNTVYFQMNSLKPEDTAVYYCATRYYRGYVRGTHHVGGYYYRGQGTQVTVSS | low polyreactivity |
| QVHLVESGGVLVQAGGSLRLSCAASGSPFTKYAMGWYRQAPGKERELVAAFTGGGGSTYYADSVKGRFTISRDNAKNTVYLQLNSLKPEDSAVYYCAAKVALSRFRQWSYDYWGQGTQVTVSS | low polyreactivity |
| QDQLEESGGGLVQEGGSLRLSCAATGFTLAFNAMGWYRQAPGKERELVASITSSSGSTYYADSVKGRFTISRDNAKITVFLQMNSLKPEDTAVYYCARDLAIPQVLSQPIFGYWGQGTQVTVSS | low polyreactivity |
| QVQLVESGGGLVQAGGSLRLICAASGLIFVRYAMGWYRQAPGKERELVATITWSGGTTYADSVKGRFTISRDNAKNTVYLQMNSLNPEDTAVYYCAVEWPAWTDSDYPVGGHAFGYWGQGTQVTVSS | low polyreactivity |
| QVQLVDSGGGLVQAGGSLRISCAASGSIFPSNAMGWYRQAPGKERELVAAINRDGITNYADSVKGRFTISRDNAKNTVYLQMNSLKPEDTAVYYCAAEFAGQWWEYGYWGQGTQVTESS | low polyreactivity |
| QVQLVESGGGLVQAGGSLRLSCAASGRTFWSNGMGWYRQAPGKERELVASISTSGGRTYYADSVKGRFTISRDNAKNTVYLQMNSLKPEDSAVYYCAARTVYRGRAYDYWGQGTQVTVSS | high polyreactivity |
| QVQLVESGGGLVQAGGSLRLSCAASGSIFGYYAMGWYRQAPGKERELVAAIRGSSGSTYYADSVKGRFTISRDNAKNTVYLQMNSLKPEDTAVYYCAADYRTYVYVYGFRHFDYWGQGTQVTVSS | low polyreactivity |
| QVQLVESGGGLVQAGGSLRLSCAASGRIFAGYVMGWYRQAPGKERELVAAITSGGGTDYADSVKGRFTISRDNAKNTVYLQMNSQKPEDTAVYYCAADPYYSWFGWDYEYWGQGTQVTVSS | high polyreactivity |
| QVQLVESGGGLVQAGCSLRLSCAASGSIFDDYAMGWNRQAPGKERELVAAISSSGTSTYYADSVKGRFTISRDNAKNTVYLQMNSLKPEVTAVYYCAARSAILKSGYLMDYWGQGTHVTVSS | low polyreactivity |
| QVQLVESGGGLVQAGGSLRLSCAASGFTFVAYAMGWYRQAPGKERELVAAISKSGGNTYYADSVKGRFTISRDNAKNTVYLQMNSLKPEDTAVYYCAAPRRYAWGQVNYWGQGTQVTVSS | high polyreactivity |
| QVQLVESGGGLVQAGGSLRLSCAASGRTFASNAMGWYRQAPGKERELVAAISSAGGTNYADSVKGRFTISRDNAKNTVYLQMNSLKPEDTAVYYCAAASPYYSYHRYIYYYWGQGTQVTVSS | high polyreactivity |
| QVQLVESGGGLVQEGGSLRLICAASGRIFFYYAMGWYRQAPGKERELVAAISQSGGSTYYADSVKGRFTISRDNAKNTVYLQMNSLKPEDPAVYYCNAAEPYYDTSAVAGDYWGQGTQVTVSS | low polyreactivity |
| QVQLVESGGGLVQAGGSLRLSCAASGFTFPWYAMGWYRQAPGKERELVASISYRGDSTYYSDSVKGRFTISRDNAKNTVYLQMNSLKPEDTAVYYCADDYLWYNYAGQVDHDYDYWGQGTQVTVSS | low polyreactivity |
| QVQLVESGGGLVQAGGSLRLSCAASGRTFFVNAMGWYRQAPGKERELVAGITRTGGTTYYADSVKGRFTISRDNAKNTVYLQMNSLKPEDTAVYYCAATPGGTDLGGGYYGFDYWGQGTQVTVSS | low polyreactivity |

| Sequence | polyreactivity (PSR sort gate) |
| --- | --- |
| QVQLVESGGGLVQAGGSIRLSCAASGSIYKSNTMGRYRQAPGKEREFVAAISWGGGSTYYADSVKGRFTISRDNAKHTVYLQMNSLKPEDTAVYYCATRPGTRPAYDYWGQGTQVTVSS | high polyreactivity |
| QVQLVESGGGLVQAGGSLRLSCAASGFTFGYNDMGWYRQAPGKERELVAAIRLSDGGTYYADSVKGRFTISRDNAKNTVYLQMNSLKPEDTAVYYCAAPQDTYIPYDYWGQGTQVTVSS | low polyreactivity |
| QVQLVESGGGLVQAGGSLRLSCAASGSTFPLNAMGWYRQAPGKERELVASINFGGGTTYYADSVKGRFTISRDNAKNTVYLQMNSLKPEDTAVYYCAADVYRGTYRRDYWGQGTQVTVSS | high polyreactivity |
| QVQLVESGGGLVQAGGSLRLSCAASGFIFAIYAMGWYRQAPGKEMELVAAITSSGGSTYYADSVKGRFTISRDNAKNTVYLQMNSLKPEDTAVYYCNKLSWRKYLGYEYWGQGTHVTVSS | high polyreactivity |
| QVQLVESGGGLVQAGGSLRLNSAASGIIFPRYAMGWYSQAPGKEWEVVAGFTSSGGTYYADSVKGRFTISRDHAKNTVYLQMNSLIPEDTAVYYCAARQGNLRRGVRWFNYWGQGTQVTVSS | high polyreactivity |
| QVQLVESGRGLFQAGGSLRLSCAASGFTGSYAMGWYRQAPGKVREFVAAISYRGSSTYYADSVKGRFTISRDNAKNTVYLQMNSLKPEDTAVYYCNSVHYVLYGDYDYWGQGTQVTVSS | high polyreactivity |
| QVQLVESGGGLVQAGGSLRVSCAASGFTFYGYAMGWSRQAPGKEREVVAAISWSGGSTYYADSVKGRFTISRDNAKNTVYLLMNRLKAEDTAVYYCAKKWTAPGKGYPRSPGGYGYWGQGTQVTVSS | high polyreactivity |
| QVQLVESGGGLVQAGGSLRLSCAASGSIFTIYAMGWYRQAPGKERELVAAITWSGGSTYYADSVKGRFTISRDNAKNTVYLQMNSLKPEDTAVYYCAAKYYGEMYYWGQGTQVTVSS | low polyreactivity |
| QVQLVESGGGLVQAGGSLRLSCAASGSTFQYNDMGWYRQAPGKERELVAAISSSGGSTSYADSVKGRFTISRDNAKNTVYLQMNSLKPEDTAVYYCAASYPGYHLYRDDYWGQGTQVTVSS | low polyreactivity |
| QVQHVESGGGLVQAGGSLRLSCGASGITLYGYAMGWYRQAPGKEREFVAAISRSGDRTYYADSVKGRFTISRDNAKNTVYLQMNSLKPEDTAVYYCNAWRYDYWGQGTQVTVSS | high polyreactivity |
| QDQLVESGGGLVQAGGSLRLSCAASGRTFHKYAMGWSRQAPGKEMELVAAITGSGVRTYYADSVKGRFTISRDNAKNTVYLQMNSLKPEDTAVYYGNADSYNRNGDYWGQGTQVTVSS | high polyreactivity |
| QVQLVESGGGLVQAGGSLRLSCASSGSTFFTNAMVWYRQAPGKERELVATITWSGGTTYADSVKGRFTISRDNAKNTVYLQMNSLKPEDTAVYYCADESSSYWGDQGGALWLYDYWGQGTQVTVSS | low polyreactivity |
| QVQLEESGGGLVQAGGRLRLSCAASGSIFDLNAMGRYRQAPGKERELVAAISQRGTRTYYADSVKGRFTISRDNAKNNVYLQMNSLIPEDTAVYYCAVGNGLSRYVYGDYEYWGQGTQVTVSS | high polyreactivity |
| QVQLVESGGGLVQAGGILRLSCAASGSIFVKYTMGWYRQAPGKERELVAAISFRGGSTYYADSVKGRFTISRDNAKNTVYLQMNSLKPEDTAVYYCNADGGWWPEYYWGQGTQVTVSS | low polyreactivity |
| QVQLVESGGGLVQAGGSLRLSCAASGYTFVYYAMGLYRQAPGKERELVAAITSGGRTNYADSVKGRFTISRDNAKNTVYLQMKSLKPEDTAVYYCNVDGYYLFVRGYEYWGQGTQVTVSS | low polyreactivity |
